In publication PMC5177531:

Experiments:
[1] = target: T1, 6TM/E11 mu opioid receptor site 6TM variant (Mus musculus), P42866; test: competition; conditions: modification not given
T1 chain: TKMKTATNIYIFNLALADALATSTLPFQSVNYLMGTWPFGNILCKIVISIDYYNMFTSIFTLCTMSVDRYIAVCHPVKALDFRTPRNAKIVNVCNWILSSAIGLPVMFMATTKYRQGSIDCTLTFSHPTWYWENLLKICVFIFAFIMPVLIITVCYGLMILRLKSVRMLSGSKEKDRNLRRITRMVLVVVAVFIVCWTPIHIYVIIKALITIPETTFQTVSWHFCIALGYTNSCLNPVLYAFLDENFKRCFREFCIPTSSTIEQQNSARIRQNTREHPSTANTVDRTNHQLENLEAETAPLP

[2] = target: mMOR-1 (Mus musculus), P42866; test: competition; conditions: modification not given
Chain of mMOR-1 (Mus musculus), P42866 (P42866 whole entry): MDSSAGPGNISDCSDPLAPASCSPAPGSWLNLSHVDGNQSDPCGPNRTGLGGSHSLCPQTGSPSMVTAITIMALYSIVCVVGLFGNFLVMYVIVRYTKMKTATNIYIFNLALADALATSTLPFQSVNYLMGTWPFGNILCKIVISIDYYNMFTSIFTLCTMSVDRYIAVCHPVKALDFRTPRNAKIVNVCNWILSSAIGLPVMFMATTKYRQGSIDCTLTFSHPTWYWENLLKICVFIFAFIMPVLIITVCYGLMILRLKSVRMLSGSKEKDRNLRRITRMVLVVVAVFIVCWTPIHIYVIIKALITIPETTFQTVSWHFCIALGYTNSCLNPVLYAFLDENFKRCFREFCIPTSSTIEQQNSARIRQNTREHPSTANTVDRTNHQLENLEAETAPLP

YAFGYPS [Dermorphin]
Ki [1]: > 500 nM
Ki [2]: 4 nM
